According to patent US20260194540A1 (ARIZONA BOARD OF REGENTS ON BEHALF OF ARIZONA STATE …, published 2026):

Molecular target: T1, TDP-43 from healthy human brain tissue (human, UniProt Q13148 1-414)
T1 construct: also called healthy TDP-43; healthy IP TDP-43
Assay: phage ELISA on human brain tissue

T1 sequence (Q13148 whole entry): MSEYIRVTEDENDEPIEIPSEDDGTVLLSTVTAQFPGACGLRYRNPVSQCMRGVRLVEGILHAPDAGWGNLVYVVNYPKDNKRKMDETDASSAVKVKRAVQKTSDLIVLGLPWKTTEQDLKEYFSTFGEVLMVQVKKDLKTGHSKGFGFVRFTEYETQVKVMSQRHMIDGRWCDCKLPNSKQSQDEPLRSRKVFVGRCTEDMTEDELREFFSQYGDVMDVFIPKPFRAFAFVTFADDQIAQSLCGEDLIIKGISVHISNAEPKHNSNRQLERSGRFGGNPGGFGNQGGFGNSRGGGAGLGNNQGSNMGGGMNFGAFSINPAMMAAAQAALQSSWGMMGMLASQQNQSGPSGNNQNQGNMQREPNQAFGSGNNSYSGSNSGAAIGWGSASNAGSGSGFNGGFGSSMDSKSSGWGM

B1: TDP-43 monomer clone #5 (scFv)
scFv: MAEVQLLESGGGLVRPGGSLRLSCAASGFTFSSYAMSWVRQAPGKGLEWVSDIANTGDATGYADSVKGRFTISRDNSKNTLYLQMNSLRAEDTAVYYCAKTGAAFDYWGQGTLVTVSSGGGGSGGGGSGGGGSTDIQMTQSPSSLSASVGDRVTITCRASQSISSYLNWYQQKPGKAPKLLIYAASTLQSGVPSRFSGSGSGTDFTLTISSLQPEDFATYYCQQSSSDPATFGQGTKVEIKRAA
notes: Tested as scFv attached to a phage particle, tagged with a signal moiety when used for detection; also called monomer phage #5
binding result: binds
